# Experimental data taken from paper PMC11574045, “A cofactor-induced repressive type of transcription factor condensation can be induced by synthetic peptides to suppress tumorigenesis” (The EMBO Journal, 2024).
# Tested on: HEK293FT cells transfected with TF library
# Experiment: Screening of TF condensates based on fluorescent puncta
# Type: cell-based
# Details: Figure 1B numerical data; TF library screen, one value per transcriptional factor
# Procedure, shortened: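 HEK293FT, PEI transfection of TF library, 60 h; ±glucose 12 h; 4% PFA fix, 0.05% Triton X-100 permeabilization, 5% BSA block; anti-Flag/anti-GAL4 overnight at 4 °C, Alexa 488 secondary 1 h; high-content imaging, 50 fields/well.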
row,Molecule,Z score of condensed fraction
1,"RNF2 (protein, UniProt Q99496 2-336, looked up) E3 ubiquitin-protein ligase …: SQAVQTNGTQPLSKTWELSLYELQRTPQEAITDGLEIVVSPRSLHSELMCPICLDMLKNTMTTKECLHRFCADCIITALRSGNKECPTCRKKLVSKRSLRPDPNFDALISKIYPSRDEYEAHQERVLARINKHNNQQALSHSIEEGLKIQAMNRLQRGKKQQIENGSGAEDNGDSSHCSNASTHSNQEAGPSNKRTKTSDDSGLELDNNNAAMAIDPVMDGASEIELVFRPHPTLMEKDDSAQTRYIKTSGNATVDHLSKYLAVRLALEELRSKGESNQMNLDTASEKQYTIYIATASGQFTVLNGSFSLELVSEKYWKVNKPMELYYAPTKEHK",-0.7099
2,"RNF6 (protein, UniProt Q9Y252 1-685, looked up) E3 ubiquitin-protein ligase …: MNQSRSRSDGGSEETLPQDHNHHENERRWQQERLHREEAYYQFINELNDEDYRLMRDHNLLGTPGEITSEELQQRLDGVKEQLASQPDLRDGTNYRDSEVPRESSHEDSLLEWLNTFRRTGNATRSGQNGNQTWRAVSRTNPNNGEFRFSLEIHVNHENRGFEIHGEDYTDIPLSDSNRDHTANRQQRSTSPVARRTRSQTSVNFNGSSSNIPRTRLASRGQNPAEGSFSTLGRLRNGIGGAAGIPRANASRTNFSSHTNQSGGSELRQREGQRFGAAHVWENGARSNVTVRNTNQRLEPIRLRSTSNSRSRSPIQRQSGTVYHNSQRESRPVQQTTRRSVRRRGRTRVFLEQDRERERRGTAYTPFSNSRLVSRITVEEGEESSRSSTAVRRHPTITLDLQVRRIRPGENRDRDSIANRTRSRVGLAENTVTIESNSGGFRRTISRLERSGIRTYVSTITVPLRRISENELVEPSSVALRSILRQIMTGFGELSSLMEADSESELQRNGQHLPDMHSELSNLGTDNNRSQHREGSSQDRQAQGDSTEMHGENETTQPHTRNSDSRGGRQLRNPNNLVETGTLPILRLAHFFLLNESDDDDRIRGLTKEQIDNLSTRHYEHNSIDSELGKICSVCISDYVTGNKLRQLPCMHEFHIHCIDRWLSENCTCPICRQPVLGSNIANNG",-1.108
3,"RUNX3 (protein, UniProt Q13761 1-415, looked up) Runt-related transcription …: MRIPVDPSTSRRFTPPSPAFPCGGGGGKMGENSGALSAQAAVGPGGRARPEVRSMVDVLADHAGELVRTDSPNFLCSVLPSHWRCNKTLPVAFKVVALGDVPDGTVVTVMAGNDENYSAELRNASAVMKNQVARFNDLRFVGRSGRGKSFTLTITVFTNPTQVATYHRAIKVTVDGPREPRRHRQKLEDQTKPFPDRFGDLERLRMRVTPSTPSPRGSLSTTSHFSSQPQTPIQGTSELNPFSDPRQFDRSFPTLPTLTESRFPDPRMHYPGAMSAAFPYSATPSGTSISSLSVAGMPATSRFHHTYLPPPYPGAPQNQSGPFQANPSPYHLYYGTSSGSYQFSMVAGSSSGGDRSPTRMLASCTSSAASVAAGNLMNPSLGGQSDGVEADGSHSNSPTALSTPGRMDEAVWRPY",-0.4732
4,"BBX (protein, UniProt Q8WY36 1-941, looked up) HMG box transcription factor …: MKGSNRNKDHSAEGEGVGKRPKRKCLQWHPLLAKKLLDFSEEEEEEDEEEDIDKVQLLGADGLEQDVGETEDDESPEQRARRPMNAFLLFCKRHRSLVRQEHPRLDNRGATKILADWWAVLDPKEKQKYTDMAKEYKDAFMKANPGYKWCPTTNKPVKSPTPTVNPRKKLWAFPSDSSRDLPSPKKAKTEEMPQLNFGMADPTQMGGLSMLLLAGEHALGTPEVSSGTCRPDVSESPELRQKSPLFQFAEISSSTSHSDASTKQCQTSALFQFAEISSNTSQLGGAEPVKRCGKSALFQLAEMCLASEGMKMEESKLIKAKESDGGRIKELEKGKEEKEIKMEKTDETRLQKEAEFEKSAKENLRDSKELRNFEALQIDDIMAIKMEDPKEIRKEELEEDHKCSHFPDFSYSASSKIIISDVPSRKDHMCHPHGIMIIEDPAALNKPEKLKKKKKKSKMDRHGNDKSTPKKTCKKRQSSESDIESVIYTIEAVAKGDWGIEKLGDTPRKKVRTSSSGKGSILDAKPPKKKVKSREKKMSKEKSSDTTKESRPPDFISISASKNISGETPEGIKAEPLTPMEDALPPSLSGQAKPEDSDCHRKIETCGSRKSERSCKGALYKTLVSEGMLTSLRANVDRGKRSSGKGNSSDHEGCWNEESWTFSQSGTSGSKKFKKTKPKEDCLLGSAKLDEEFEKKFNSLPQYSPVTFDRKCVPVPRKKKKTGNVSSEPTKTSKGPFQSQKKNLFHKIVSKYKHKKEKPNVPEKGSGDKWSNKQLFLDAIHPTEAIFSEDRNTMEPVHKVKNIPSIFNTPEPTTTQEPLVGSQKRKARKTKITHLVRTADGRVSPAGGTLDDKPKEQLQRSLPKATETDCNDKCSHNTEVGETRSSTPEMPAVSAFFSLAALAEVAAMENVHRGQRSTPLTHDGQPKEMPQAPVLISCADQ",1.56
5,"RYBP (protein, UniProt Q8N488 1-228, looked up) RING1 and YY1-binding protein: MTMGDKKSPTRPKRQAKPAADEGFWDCSVCTFRNSAEAFKCSICDVRKGTSTRKPRINSQLVAQQVAQQYATPPPPKKEKKEKVEKQDKEKPEKDKEISPSVTKKNTNKKTKPKSDILKDPPSEANSIQSANATTKTSETNHTSRPRLKNVDRSTAQQLAVTVGNVTVIITDFKEKTRSSSTSSSTVTSSAGSEQQNQSSSGSESTDKGSSRSSTPKGDMSAVNDESF",-0.5834
6,"BATF3 (protein, UniProt Q9NR55 1-127, looked up) Basic leucine zipper …: MSQGLPAAGSVLQRSVAAPGNQPQPQPQQQSPEDDDRKVRRREKNRVAAQRSRKKQTQKADKLHEEYESLEQENTMLRREIGKLTEELKHLTEALKEHEKMCPLLLCPMNFVPVPPRPDPVAGCLPR",-0.4698
7,"RXRG (protein, UniProt P48443 1-463, looked up) Retinoic acid receptor …: MYGNYSHFMKFPAGYGGSPGHTGSTSMSPSAALSTGKPMDSHPSYTDTPVSAPRTLSAVGTPLNALGSPYRVITSAMGPPSGALAAPPGINLVAPPSSQLNVVNSVSSSEDIKPLPGLPGIGNMNYPSTSPGSLVKHICAICGDRSSGKHYGVYSCEGCKGFFKRTIRKDLIYTCRDNKDCLIDKRQRNRCQYCRYQKCLVMGMKREAVQEERQRSRERAESEAECATSGHEDMPVERILEAELAVEPKTESYGDMNMENSTNDPVTNICHAADKQLFTLVEWAKRIPHFSDLTLEDQVILLRAGWNELLIASFSHRSVSVQDGILLATGLHVHRSSAHSAGVGSIFDRVLTELVSKMKDMQMDKSELGCLRAIVLFNPDAKGLSNPSEVETLREKVYATLEAYTKQKYPEQPGRFAKLLLRLPALRSIGLKCLEHLFFFKLIGDTPIDTFLMEMLETPLQIT",0.0107
8,"RSF1 (protein, UniProt Q96T23 1-1441, looked up) Remodeling and spacing factor …: MATAAAAAAVMAPPGCPGSCPNFAVVCSFLERYGPLLDLPELPFPELERVLQAPPPDVGNGEVPKELVELHLKLMRKIGKSVTADRWEKYLIKICQEFNSTWAWEMEKKGYLEMSVECKLALLKYLCECQFDDNLKFKNIINEEDADTMRLQPIGRDKDGLMYWYQLDQDHNVRMYIEEQDDQDGSSWKCIVRNRNELAETLALLKAQIDPVLLKNSSQQDNSSRESPSLEDEETKKEEETPKQEEQKESEKMKSEEQPMDLENRSTANVLEETTVKKEKEDEKELVKLPVIVKLEKPLPENEEKKIIKEESDSFKENVKPIKVEVKECRADPKDTKSSMEKPVAQEPERIEFGGNIKSSHEITEKSTEETEKLKNDQQAKIPLKKREIKLSDDFDSPVKGPLCKSVTPTKEFLKDEIKQEEETCKRISTITALGHEGKQLVNGEVSDERVAPNFKTEPIETKFYETKEESYSPSKDRNIITEGNGTESLNSVITSMKTGELEKETAPLRKDADSSISVLEIHSQKAQIEEPDPPEMETSLDSSEMAKDLSSKTALSSTESCTMKGEEKSPKTKKDKRPPILECLEKLEKSKKTFLDKDAQRLSPIPEEVPKSTLESEKPGSPEAAETSPPSNIIDHCEKLASEKEVVECQSTSTVGGQSVKKVDLETLKEDSEFTKVEMDNLDNAQTSGIEEPSETKGSMQKSKFKYKLVPEEETTASENTEITSERQKEGIKLTIRISSRKKKPDSPPKVLEPENKQEKTEKEEEKTNVGRTLRRSPRISRPTAKVAEIRDQKADKKRGEGEDEVEEESTALQKTDKKEILKKSEKDTNSKVSKVKPKGKVRWTGSRTRGRWKYSSNDESEGSGSEKSSAASEEEEEKESEEAILADDDEPCKKCGLPNHPELILLCDSCDSGYHTACLRPPLMIIPDGEWFCPPCQHKLLCEKLEEQLQDLDVALKKKERAERRKERLVYVGISIENIIPPQEPDFSEDQEEKKKDSKKSKANLLERRSTRTRKCISYRFDEFDEAIDEAIEDDIKEADGGGVGRGKDISTITGHRGKDISTILDEERKENKRPQRAAAARRKKRRRLNDLDSDSNLDEEESEDEFKISDGSQDEFVVSDENPDESEEDPPSNDDSDTDFCSRRLRRHPSRPMRQSRRLRRKTPKKKYSDDDEEEESEENSRDSESDFSDDFSDDFVETRRRRSRRNQKRQINYKEDSESDGSQKSLRRGKEIRRVHKRRLSSSESEESYLSKNSEDDELAKESKRSVRKRGRSTDEYSEADEEEEEEEGKPSRKRLHRIETDEEESCDNAHGDANQPARDSQPRVLPSEQESTKKPYRIESDEEEDFENVGKVGSPLDYSLVDLPSTNGQSPGKAIENLIGKPTEKSQTPKDNSTASASLASNGTSGGQEAGAPEEEEDELLRVTDLVDYVCNSEQL",-1.08
9,"ROG (protein, UniProt Q9Y2Y4 1-487, looked up) Zinc finger and BTB …: MSLPPIRLPSPYGSDRLVQLAARLRPALCDTLITVGSQEFPAHSLVLAGVSQQLGRRGQWALGEGISPSTFAQLLNFVYGESVELQPGELRPLQEAARALGVQSLEEACWRARGDRAKKPDPGLKKHQEEPEKPSRNPERELGDPGEKQKPEQVSRTGGREQEMLHKHSPPRGRPEMAGATQEAQQEQTRSKEKRLQAPVGQRGADGKHGVLTWLRENPGGSEESLRKLPGPLPPAGSLQTSVTPRPSWAEAPWLVGGQPALWSILLMPPRYGIPFYHSTPTTGAWQEVWREQRIPLSLNAPKGLWSQNQLASSSPTPGSLPQGPAQLSPGEMEESDQGHTGALATCAGHEDKAGCPPRPHPPPAPPARSRPYACSVCGKRFSLKHQMETHYRVHTGEKPFSCSLCPQRSRDFSAMTKHLRTHGAAPYRCSLCGAGCPSLASMQAHMRGHSPSQLPPGWTIRSTFLYSSSRPSRPSTSPCCPSSSTT",-0.6823
10,"RXRA (protein, UniProt P19793 1-462, looked up) Retinoic acid receptor …: MDTKHFLPLDFSTQVNSSLTSPTGRGSMAAPSLHPSLGPGIGSPGQLHSPISTLSSPINGMGPPFSVISSPMGPHSMSVPTTPTLGFSTGSPQLSSPMNPVSSSEDIKPPLGLNGVLKVPAHPSGNMASFTKHICAICGDRSSGKHYGVYSCEGCKGFFKRTVRKDLTYTCRDNKDCLIDKRQRNRCQYCRYQKCLAMGMKREAVQEERQRGKDRNENEVESTSSANEDMPVERILEAELAVEPKTETYVEANMGLNPSSPNDPVTNICQAADKQLFTLVEWAKRIPHFSELPLDDQVILLRAGWNELLIASFSHRSIAVKDGILLATGLHVHRNSAHSAGVGAIFDRVLTELVSKMRDMQMDKTELGCLRAIVLFNPDSKGLSNPAEVEALREKVYASLEAYCKHKYPEQPGRFAKLLLRLPALRSIGLKCLEHLFFFKLIGDTPIDTFLMEMLEAPHQMT",-0.874
